From paper PMC10095102, “Conformational Changes of Acyl Carrier Protein Switch the Chain Length Preference of Acyl-ACP Thioesterase ChFatB2” (International Journal of Molecular Sciences, 2023)

T1: acyl-ACP thioesterase ChFatB2 from Cuphea hookeriana, excluding the transit peptide (residues 129-395) (Cuphea hookeriana, UniProt Q39514 129-395)
T1 sequence (looked up): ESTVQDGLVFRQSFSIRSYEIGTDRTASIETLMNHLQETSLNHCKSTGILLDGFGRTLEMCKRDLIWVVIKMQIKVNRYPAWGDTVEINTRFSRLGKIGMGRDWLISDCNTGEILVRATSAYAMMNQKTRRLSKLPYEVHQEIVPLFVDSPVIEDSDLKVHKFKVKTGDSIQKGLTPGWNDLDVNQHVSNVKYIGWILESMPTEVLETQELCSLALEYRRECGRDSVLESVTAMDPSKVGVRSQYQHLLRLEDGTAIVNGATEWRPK

B1: C8-acyl acyl carrier protein from Escherichia coli (natural protein)
chain: STIEERVKKIIGEQLGVKQEEVTNNASFVEDLGADSLDTVELVMALEEEFDTEIPDEEAEKITTVQAAIDYINGHQA
modifications: C8 (8:0) acyl chain on the phosphopantetheine of holo-ACP (residue not given)
notes: also called C8-EcACP; C8-ACP
B2: C10-acyl acyl carrier protein from Escherichia coli (natural protein)
chain: B1 chain
modifications: C10 (10:0) acyl chain on the phosphopantetheine of holo-ACP (residue not given)
notes: also called C10-EcACP
B3: C8-acyl acyl carrier protein 2 from Cuphea lanceolata (residues 54-137) (natural protein, UniProt P52412 54-137, looked up)
chain: QAKPETVTKVCNIVKKQLALPDDSDVSGVSKFSALGADSLDTVEIVMGLEEEFGISVEEESAQSIQTVQDAADLIEKLMEKKGH
modifications: C8 (8:0) acyl chain on the phosphopantetheine of holo-ACP (residue not given)
notes: acyl carrier protein ClACP2, Cuphea lanceolata, UniProt P52412, residues 54-137, excluding the chloroplast transit peptide; also called C8-ClACP2
B4: C10-acyl acyl carrier protein 2 from Cuphea lanceolata (residues 54-137) (natural protein, UniProt P52412 54-137, looked up)
chain: B3 chain
modifications: C10 (10:0) acyl chain on the phosphopantetheine of holo-ACP (residue not given)
notes: acyl carrier protein ClACP2, Cuphea lanceolata, UniProt P52412, residues 54-137, excluding the chloroplast transit peptide; also called C10-ClACP2
B5: holo acyl carrier protein from Escherichia coli (natural protein)
chain: B1 chain
modifications: holo form (phosphopantetheine; residue not given)
notes: also called holo-EcACP; EC-holo-ACP; source: E. coli BAP1 (chromosomal B. subtilis Sfp), purified (Ni-NTA, Superdex 200)
B6: holo acyl carrier protein 2 from Cuphea lanceolata, excluding the chloroplast transit peptide (residues 54-137) (natural protein, UniProt P52412 54-137, looked up)
chain: B3 chain
modifications: holo form (phosphopantetheine; residue not given)
notes: acyl carrier protein ClACP2, Cuphea lanceolata, UniProt P52412, residues 54-137, excluding the chloroplast transit peptide; also called holo-ClACP2; ClACP2; source: E. coli BAP1 (chromosomal B. subtilis Sfp), purified (Ni-NTA, Superdex 200)

Target: T1, acyl-ACP thioesterase ChFatB2 from …
Experiment: cell-based or functional assay
Conditions: not given

Going from B1 to B2, the “relative activity of ChFatB2 (thioesterase, DTNB assay)” value rises from 0.07 µmol/min/mg to 0.17 µmol/min/mg.

Compared with B3, B4 is lower in “relative activity of ChFatB2 (thioesterase, DTNB assay)” value: 0.51 µmol/min/mg for the first, 0.33 µmol/min/mg for the second.

Target: T1, acyl-ACP thioesterase ChFatB2 from …
Experiment: cell-based or functional assay
Conditions: not given
Remark: another data set of the same source

First: B1
Second: B2
The “Km of ChFatB2 thioesterase activity (DTNB assay, Michaelis-Menten fit)” value of the first is 1.9-fold higher: 350 µM for the first, 186 µM for the second.

B3 and B4 are within 1.5-fold of each other in “Km of ChFatB2 thioesterase activity (DTNB assay, Michaelis-Menten fit)” value: 217 µM for the first, 263 µM for the second.

Target: T1, acyl-ACP thioesterase ChFatB2 from …
Experiment: liquid crystal assay; ChFatB2 (5 μg/mL, 1.5 µL) dried on DMOAP-coated glass slides; ACP solutions (10 μg/mL, 1.5 µL) deposited on the immobilized ChFatB2, 30 min, washed with deionized water; grayscale of polarised-light images of the liquid crystal cell (Image J); semi-quantitative; holo-ACP defined as 100% binding
Conditions: both partners purified

Going from B1 to B2, the “grayscale of the liquid crystal image” value rises from 106 ± 11.8 grayscale to 138 ± 5.3 grayscale.

Compared with B5, B3 is lower in “grayscale of the liquid crystal image” value: 156 ± 3.2 grayscale for the first, 139 ± 6 grayscale for the second.

First: B6
Second: B4
The “grayscale of the liquid crystal image” value of the first is higher: 145 ± 19.1 grayscale for the first, 96.7 ± 11 grayscale for the second.
